The experiment addresses T1, Cy3-conjugated IκBα (UniProt P25963 1-317, limits assumed, Cy3 label (monofunctional reactive dye; site not stated)).
T1 construct: Used in solution at 0.1 ug/ml; also called Cy3-IκBα
T1 sequence (looked up): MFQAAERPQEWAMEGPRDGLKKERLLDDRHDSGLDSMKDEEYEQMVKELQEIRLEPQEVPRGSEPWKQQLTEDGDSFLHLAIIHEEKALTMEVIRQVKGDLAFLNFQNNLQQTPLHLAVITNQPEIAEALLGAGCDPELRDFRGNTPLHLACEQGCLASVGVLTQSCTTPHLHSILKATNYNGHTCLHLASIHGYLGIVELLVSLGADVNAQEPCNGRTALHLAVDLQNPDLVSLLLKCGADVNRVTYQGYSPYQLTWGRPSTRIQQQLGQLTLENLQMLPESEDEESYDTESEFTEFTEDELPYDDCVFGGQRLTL
In words: protein microarray on aldehyde glass slide, fluorescent probe in solution (FIG. 1B).

B1: GST-FRB (other)
chain: ELIRVAILWHEMWHEGLEEASRLYFGERNVKGMFEVLEPLHAMMERGPQTLKETSFNQAYGRDLMEAQEWCRKYMKSGNVKDLTQAWDLYYHVFRRISKQ
notes: domain: FRB domain of FRAP; Produced recombinantly in E. coli; The text calls the spotted protein both 'GST-FRB' and 'FRB'; also called FRB domain of FRAP; not shown: GST (glutathione S-transferase) fusion partner
As to B1, the binding result is recorded as “no binding (tested: 0.1 µg/ml)”.

B2: Protein G (other, UniProt P19909 303-497, looked up)
chain: TYKLILNGKTLKGETTTEAVDAATAEKVFKQYANDNGVDGEWTYDDATKTFTVTEKPEVIDASELTPAVTTYKLVINGKTLKGETTTEAVDAATAEKVFKQYANDNGVDGEWTYDDATKTFTVTEKPEVIDASELTPAVTTYKLVINGKTLKGETTTKAVDAETAEKAFKQYANDNGVDGVWTYDDATKTFTVTE
notes: Spotted on aldehyde (SMA) glass slides at 100 ug/ml; The commercial product may be a truncated recombinant form
On to B2, for which the binding result is recorded as “no binding (tested: 0.1 µg/ml)”.
